Laboratory results: patent US20180258175A1 (ABLEXIS, published 2018)
Read-outs that look alike come from different tables or passages of the source.

How the values were obtained:
[1] = molecular target: T1, native CD115 on OCI-AML5 cells (UniProt P07333 20-972, limits assumed); experiment: FACS, supernatant on OCI-AML5 cells
T1 construct: whole, on cells; cell line endogenous receptor; also called CD115 expressed on OCI-AML5 cells; CD115 expressing AML5 cells

[2] = molecular target: T2, human CD115 extracellular domain (Sino Biological 10161-H08H) (human, UniProt P07333 20-517); experiment: ELISA, supernatant on huCD115
T2 construct: extracellular domain; bought recombinant protein; also called huCD115; hu-CD115

[3] = molecular target: T1, native CD115 on OCI-AML5 cells; experiment: cell-based or functional assay
[4] = molecular target: T1, native CD115 on OCI-AML5 cells; experiment: cell-based or functional assay; remark: listed apart in the source
[5] = molecular target: T2, human CD115 extracellular domain (Sino …); experiment: ELISA, blocking of biotin-CSF-1 binding to coated hu-CD115
[6] = molecular target: T2, human CD115 extracellular domain (Sino …); experiment: as above; remark: listed apart in the source
[7] = molecular target: T2, human CD115 extracellular domain (Sino …); experiment: SPR ProteOn, mAb amine coupled, Hu CD115 analyte
[8] = molecular target: T2, human CD115 extracellular domain (Sino …); experiment: competition ELISA, competitor TMR 95A;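 also: clonal anti-huCD115 hybridoma supernatants tested for binding while a competitor mouse antibody is present, where failure to bind assigns them to that competitor's epitope bin; low signal means same epitope bin as the mouse competitor antibody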
[9] = molecular target: T2, human CD115 extracellular domain (Sino …); experiment: competition ELISA, competitor TMR 100A;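 also: clonal anti-huCD115 hybridoma supernatants tested for binding with the competitor antibody present, clones failing to bind are assigned to the competitor's epitope bin; low signal means same epitope bin as the mouse competitor antibody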
[10] = molecular target: T2, human CD115 extracellular domain (Sino …); experiment: competition ELISA, competitor TMR 44B;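 also: binding of antibodies from single-clone hybridoma supernatants to huCD115 measured with the competitor antibody present, a drop in signal meaning both share an epitope bin; low signal means same epitope bin as the mouse competitor antibody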
[11] = molecular target: T2, human CD115 extracellular domain (Sino …); experiment: competition ELISA, competitor TMR 20A;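 also: epitope binning by ELISA, anti-huCD115 hybridoma supernatant antibodies tested for binding to huCD115 with the competitor antibody present, loss of binding placing them in the competitor's bin; low signal means same epitope bin as the mouse competitor antibody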
[12] = molecular target: T2, human CD115 extracellular domain (Sino …); experiment: competition ELISA, competitor TMR 24A
[13] = molecular target: T2, human CD115 extracellular domain (Sino …); experiment: competition ELISA, competitor TMR 35A

B1: CCL-321A (antibody, V domains shown)
VH: EVQLVESGGGLVQPGGSLRLSCAASGFTFSSYSMNWVRQAPGKGLEWVSYISSSSSTIYYSDSVRGRFTISRDNAKNSLYLQMDSLRDEDTAVYYCARDSTMIVVVKVPDAFDIWGQGTMVTVSS
VL: not shown
notes: AlivaMab chimeric IgG, human lambda LC
binding result [1]: binds
binding result [2]: binds

B2: CCL-325A (antibody, V domains shown)
VH: QVQLQESGPGLVKPSETLSLTCTVSGGSISSYYWSWIRQSAGKGLEWIGHIYTSGSTNYNPSLKSRVTMSVDTSKNQFSLKLSSVTAADTAVYYCARERTVVTYFDYWGQGTLVTVSS
VL: not shown
notes: as for B1
binding result [1]: binds
binding result [2]: binds

B3: CCL-213A (antibody, V domains shown)
VH: QVQLQESGPGLVKPSETLSLTCTVSGGSISSYYWSWIRQPAGKGLEWIGRIYTSGSTKNPSLKSRVTMSVDTSKNQFSLKLSSVTAADTAVYYCARLTVVGALDYWGQGTLVTVSS
VL: not shown
notes: as for B1
binding result [1]: binds
binding result [2]: binds

B4: CCK-423A (antibody, V domains shown)
VH: QVQLEQSGAEVKRPGASVKVSCKASGYTFTGYYMHWVRQAPGQGLEWMGWINPNRGDTNYAQKFQGRVTMTRDTSISTAYMELSRLRSDDTAVYYCARDLEGGGPFDYWGQGTLVTVSS
VL: DIVMTQTPLSLPVTPGEPASISCRSSQSLLDSDDGNTYLDWYLQKPGQSPQLLIYTLSYRASGVPDRFSGSGSGTDFTLKISRVEAEDVGVYYCMQRIEFPSTFGQGTRLEIK
notes: AlivaMab chimeric IgG, human kappa LC; also called AlivaMab CCK423A; AlivaMab Mouse CCK423A
IC50, inhibition of CSF-1 induced phosphorylation of CD115 [3]: 0.045 nM
IC50, inhibition of CSF-1 induced P-Tyr on CD115 [4]: 0.058 nM
IC50 [5]: 0.191 nM
IC50 [6]: 0.135 nM
Kd [7]: 1.2 nM
koff [7]: 0.015 s⁻¹
kon [7]: 1.3e+07 M⁻¹ s⁻¹

B5: CCK423A-IgG2κ (fully human) (antibody, V domains shown)
VH: QVQLEQSGAEVKRPGASVKVSCKASGYTFTGYYMHWVRQAPGQGLEWMGWINPNRGDTNYAQKFQGRVTMTRDTSISTAYMELSRLRSDDTAVYYCARDLEGGGPFDYWGQGTLVTVSS
VL: DIVMTQTPLSLPVTPGEPASISCRSSQSLLDSDDGNTYLDWYLQKPGQSPQLLIYTLSYRASGVPDRFSGSGSGTDFTLKISRVEAEDVGVYYCMQRIEFPSTFGQGTRLEIK
notes: also called Human IgG2κ
IC50, inhibition of CSF-1 induced P-Tyr on CD115 [4]: 0.059 nM
IC50 [5]: 0.253 nM
Kd [7]: 1.3 nM
koff [7]: 0.014 s⁻¹
kon [7]: 1.3e+07 M⁻¹ s⁻¹

B6: CCK423A-IgG4κ (fully human) (antibody, V domains shown)
VH: QVQLEQSGAEVKRPGASVKVSCKASGYTFTGYYMHWVRQAPGQGLEWMGWINPNRGDTNYAQKFQGRVTMTRDTSISTAYMELSRLRSDDTAVYYCARDLEGGGPFDYWGQGTLVTVSS
VL: DIVMTQTPLSLPVTPGEPASISCRSSQSLLDSDDGNTYLDWYLQKPGQSPQLLIYTLSYRASGVPDRFSGSGSGTDFTLKISRVEAEDVGVYYCMQRIEFPSTFGQGTRLEIK
notes: also called Human IgG4κ; CCK423A-IgG4K
IC50, inhibition of CSF-1 induced P-Tyr on CD115 [4]: 0.06 nM
IC50 [5]: 0.133 nM
Kd [7]: 1.3 nM
koff [7]: 0.015 s⁻¹
kon [7]: 1.1e+07 M⁻¹ s⁻¹

B7: CCK423A-IgG1κ (fully human) (antibody, V domains shown)
VH: QVQLEQSGAEVKRPGASVKVSCKASGYTFTGYYMHWVRQAPGQGLEWMGWINPNRGDTNYAQKFQGRVTMTRDTSISTAYMELSRLRSDDTAVYYCARDLEGGGPFDYWGQGTLVTVSS
VL: DIVMTQTPLSLPVTPGEPASISCRSSQSLLDSDDGNTYLDWYLQKPGQSPQLLIYTLSYRASGVPDRFSGSGSGTDFTLKISRVEAEDVGVYYCMQRIEFPSTFGQGTRLEIK
notes: also called Human IgG1κ; CCK423A-I IgG1κ
IC50, inhibition of CSF-1 induced P-Tyr on CD115 [4]: 0.068 nM
IC50 [5]: 0.146 nM
Kd [7]: 1.2 nM
koff [7]: 0.017 s⁻¹
kon [7]: 1.2e+07 M⁻¹ s⁻¹

B8: CCL-332A (antibody, V domains shown)
VH: EVQLVESGGGLVQPGGSLRLSCAASGFTFSSYSMNWVRQAPGKGLEWVSYISSSSSTIYYADSVKGRFTISRDNAKNSLYLQMNSLRDEDTAVYYCARDYYGSSGYYYPHAFDIWGQGTMVTVSS
VL: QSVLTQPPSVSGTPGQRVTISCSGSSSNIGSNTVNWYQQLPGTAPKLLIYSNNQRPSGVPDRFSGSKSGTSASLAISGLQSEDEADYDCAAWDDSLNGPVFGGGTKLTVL
notes: as for B1
binding result [1]: binds
binding result [2]: binds

B9: CCL-309A (antibody, V domains shown)
VH: EVQLVESGGGLVQPGGSLRLSCAASGFTFSTYSMNWVRQAPGKGLEWVSYISSSSAIIYYADSVKGRFTISRDNAKNSLYLQMNSLRDEDTAVYYCARDLPITMIVVVMPDAFDIWGQGTMVTVSS
VL: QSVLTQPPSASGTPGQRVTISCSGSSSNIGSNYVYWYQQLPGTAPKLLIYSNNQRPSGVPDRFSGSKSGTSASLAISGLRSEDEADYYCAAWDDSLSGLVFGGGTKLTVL
notes: as for B1
binding result [1]: binds
binding result [2]: binds

B10: CCK-415A (antibody, V domains shown)
VH: QVQLQESGPGLVKPSETLSLTCTVSGGSISSSYWTWIRQPPGKGLEWIGYIHYSGSTNYNPSLKSRVTISVDTSKNQFSLKLSSVTAADTAVYYCARGFDYWGQGTLVTVSS
VL: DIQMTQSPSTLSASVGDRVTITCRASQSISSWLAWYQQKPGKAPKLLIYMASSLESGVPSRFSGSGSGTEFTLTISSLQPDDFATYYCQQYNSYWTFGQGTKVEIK
notes: AlivaMab chimeric IgG, human kappa LC
signal vs NO COMP=100 [8]: 11%
IC50, inhibition of CSF-1 induced phosphorylation of CD115 [3]: 0.57 nM
signal vs NO COMP=100 [9]: 93%
signal vs NO COMP=100 [10]: 46%
signal vs NO COMP=100 [11]: 97%
signal vs NO COMP=100 [12]: 31%
IC50 [6]: 0.355 nM
signal vs NO COMP=100 [13]: 96%

B11: CCK-416A (antibody, V domains shown)
VH: EVQLVESGGDLVQPGGSLRLSCADSRFTFSSYSMNWVRQAPGKGLEWVSYISPSSSTIYYADSVRGRFTISRDNAKNSLYLQMNSLRNEDTAVYYCARDFPHDYGYYPHYFDYWGQGTLVTVSS
VL: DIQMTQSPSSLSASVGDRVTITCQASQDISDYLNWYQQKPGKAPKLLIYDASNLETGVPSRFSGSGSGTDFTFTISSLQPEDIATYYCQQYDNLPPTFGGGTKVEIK
notes: as for B10
signal vs NO COMP=100 [8]: 21%
IC50, inhibition of CSF-1 induced phosphorylation of CD115 [3]: 1.35 nM
signal vs NO COMP=100 [9]: 104%
signal vs NO COMP=100 [10]: 53%
signal vs NO COMP=100 [11]: 94%
signal vs NO COMP=100 [12]: 37%
IC50 [6]: 0.811 nM
signal vs NO COMP=100 [13]: 107%
